For assay [1], the target named is E6AP AZUL (Homo sapiens) (UniProt Q05086). The assay can be described thus: SPR. The following applies: cited from earlier work.
For assay [2] the target is unchanged. Description: ITC. The settings on record: cited from earlier work.
Assay [3] shares this target. The settings on record: cited from earlier work.
In assay [4] the target is T1, E6AP AZUL 24-87 (Homo sapiens, UniProt Q05086).
T1 chain: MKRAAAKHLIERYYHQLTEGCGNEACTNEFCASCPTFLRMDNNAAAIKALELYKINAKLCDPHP
The assay can be described thus: fluorescence competition (50 nM S358C-acrylodan, 10 nM AZUL).

Assay [5] concerns the target T1, E6AP AZUL 24-87. Description: ITC. Background: ITC needs no label: the signal is the heat of the interaction.
In assay [6] the target is T1, E6AP AZUL 24-87. The assay can be described thus: fluorescence.
The target of assay [7] is T1, E6AP AZUL 24-87. Description: fluorescence (dual probe).
Assay [8] concerns the target T1, E6AP AZUL 24-87. Description: fluorescence competition (25 nM S337C-Atto610:AZUL).
Assay [9] concerns the target T1, E6AP AZUL 24-87. Description: fluorescence competition (25 nM S358C-acrylodan:AZUL).
The target in assay [10] is T1, E6AP AZUL 24-87. The assay can be described thus: fluorescence competition (100 nM S358C-acrylodan:AZUL).
Assay [11] deals with T1, E6AP AZUL 24-87. Description: fluorescence competition (10 nM S337C-Atto610:AZUL).

Like-named read-outs stand apart in the source and are kept apart here. Non-standard residues stand in square brackets, D forms with d. No end group written: not given here. pY = N[C@@H](Cc1ccc(OP(=O)(O)O)cc1)C(=O)O Some results are limits rather than exact numbers.

As a reminder, the Kd is the free concentration of one partner at which half of the binding sites on the other are occupied at equilibrium, for simple one-to-one binding. In the case of Rpn10 RAZUL (from UniProt P55036), the results for the Kd in assay [1] and in assay [2] were 11.6 nM and 8.1 nM, respectively.

Rpn10 322-366 (from UniProt P55036): the Kd in assay [3] is 189 nM.

The Ki is a dissociation constant, usually derived from enzyme kinetics or from competition with a known ligand. For the molecule EEDD[pY]DVMQDPEFLQSVLENLPGVDPNNEAIRNAMGSLASQATKD [Rpn10 RAZUL peptide Y326p 322-366], in assay [4], the Ki was determined as 42.6 nM.

B1: Rpn10 RAZUL S361C 305-377 (protein)
chain: SADIDASSAMDTSEPAKEEDDYDVMQDPEFLQSVLENLPGVDPNNEAIRNAMGSLACQATKDGKKDKKEEDKK
The molecule B1 came in with a Kd in assay [5] of 6.9 nM.

B2: Rpn10 RAZUL S337C 305-377 (protein)
chain: SADIDASSAMDTSEPAKEEDDYDVMQDPEFLQCVLENLPGVDPNNEAIRNAMGSLASQATKDGKKDKKEEDKK
With B2, the dissociation constant (Kd) in [5] was less than 30 nM.

B3: Rpn10 RAZUL S337C-acrylodan 305-377 (protein)
chain: SADIDASSAMDTSEPAKEEDDYDVMQDPEFLQSVLENLPGVDPNNEAIRNAMGSLASQATKDGKKDKKEEDKK
modifications: S337C labeled with acrylodan
On to B3, for which, in assay [5], the Kd was less than 35 nM.

B4: Rpn10 RAZUL S358C 305-377 (protein)
chain: SADIDASSAMDTSEPAKEEDDYDVMQDPEFLQSVLENLPGVDPNNEAIRNAMGCLASQATKDGKKDKKEEDKK
For the molecule B4, the Kd in [5] is less than 30 nM.

B5: Rpn10 RAZUL S358C-acrylodan 305-377 (protein)
chain: SADIDASSAMDTSEPAKEEDDYDVMQDPEFLQSVLENLPGVDPNNEAIRNAMGSLASQATKDGKKDKKEEDKK
modifications: S358C labeled with acrylodan
Consider B5, for which the Kd in assay [6] was approximately 18 nM; in [7] it was 2.97 nM.

B6: Rpn10 RAZUL S337C-Atto610 305-377 (protein)
chain: SADIDASSAMDTSEPAKEEDDYDVMQDPEFLQSVLENLPGVDPNNEAIRNAMGSLASQATKDGKKDKKEEDKK
modifications: S337C labeled with Atto610
B6: the Kd in assay [7] stood at 16.3 nM.

In the case of EEDDYDVMQDPEFLQSVLENLPGVDPNNEAIRNAMGSLASQATKD [Rpn10 RAZUL peptide 322-366], the inhibitory constant (Ki) in assay [4] worked out at 28.5 nM; in assay [8], 780 nM; in [9], 1260 nM; in [10] it was 18200 nM; in [11] it was 664 nM.

Values taken from paper PMC10935766 (2024).
